Earlier results in PMC3648593.

Biological target: Met (Homo sapiens) (UniProt P08581)
Chain of UniProt P08581 (P08581 25-932): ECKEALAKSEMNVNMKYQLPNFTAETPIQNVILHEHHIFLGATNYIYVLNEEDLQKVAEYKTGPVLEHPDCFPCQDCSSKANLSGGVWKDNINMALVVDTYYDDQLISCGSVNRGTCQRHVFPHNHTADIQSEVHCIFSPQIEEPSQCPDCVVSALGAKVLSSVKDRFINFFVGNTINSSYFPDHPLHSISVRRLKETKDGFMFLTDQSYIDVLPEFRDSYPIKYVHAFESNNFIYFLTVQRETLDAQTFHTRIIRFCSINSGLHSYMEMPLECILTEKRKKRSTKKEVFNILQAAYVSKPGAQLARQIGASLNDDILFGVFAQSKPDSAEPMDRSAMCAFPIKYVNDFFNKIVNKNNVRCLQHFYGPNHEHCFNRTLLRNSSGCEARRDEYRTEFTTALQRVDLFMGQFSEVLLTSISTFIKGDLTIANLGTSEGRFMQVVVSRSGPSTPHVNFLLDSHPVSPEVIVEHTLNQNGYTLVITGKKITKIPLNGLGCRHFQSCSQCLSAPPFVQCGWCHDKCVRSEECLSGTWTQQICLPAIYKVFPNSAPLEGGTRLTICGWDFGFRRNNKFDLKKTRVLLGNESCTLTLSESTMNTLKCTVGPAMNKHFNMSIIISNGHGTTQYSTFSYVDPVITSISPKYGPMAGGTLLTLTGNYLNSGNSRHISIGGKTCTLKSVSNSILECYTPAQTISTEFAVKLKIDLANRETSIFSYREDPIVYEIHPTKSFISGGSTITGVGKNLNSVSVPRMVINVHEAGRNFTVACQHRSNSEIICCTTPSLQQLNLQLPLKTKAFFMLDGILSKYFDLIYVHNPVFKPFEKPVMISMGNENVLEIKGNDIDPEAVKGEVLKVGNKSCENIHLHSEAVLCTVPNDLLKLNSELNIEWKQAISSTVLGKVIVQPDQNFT

Kd: 2 nM
Substance: Decorin (from UniProt P07585)
